According to the supplement of paper PMC7125110:
± gives the standard error. Fewer inactive variants are shown than the library holds.

B1: glmS ribozyme (parent)
chain: AUAAAAGCGCCAGAACUACAGAAAUGUAGUUGACGAGGAGGAGGUUUAUCGAAUUUUCGGCGGAUGCCUCCAAA

Columns and labels:
Details in all cases: with glucosamine-6-phosphate
[1] = variants of: B1; experiment: self-cleavage kobs at 640 uM GlcN6P; higher = faster cleavage; RNA array
Outline: (§1)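 Tiles of sequenced MiSeq chips were imaged over ~14 h at 37 °C. On them, barcoded ribozyme variants had been transcribed in situ by E. coli RNA polymerase and were tracked via a hybridised Cy3 probe while glucosamine-6-phosphate (40 μM to 10 mM) in HEPES/KCl/Mg(OAc)2 buffer flowed in. Per-tile medians, normalised to baseline and to non-cleaving reference variants, were fit to one- or two-exponential decays for kobs, and weighted Michaelis–Menten fits gave kcat and KM.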

[2] = variants of: B1; experiment: self-cleavage kobs at 2500 uM GlcN6P; higher = faster cleavage; RNA array
Outline: as §1

[3] = variants of: B1; experiment: self-cleavage kobs at 10000 uM GlcN6P; higher = faster cleavage; RNA array
Outline: as §1

Row | Variant | self-cleavage kobs at 640 uM GlcN6P [1] | self-cleavage kobs at 2500 uM GlcN6P [2] | self-cleavage kobs at 10000 uM GlcN6P [3]
1 | C16U A53U U54G C58A | 3.02e-05 ± 1.5e-05 s⁻¹ | 3.59e-05 ± 1.1e-05 s⁻¹ | 0.000172 ± 2e-05 s⁻¹
2 | U30C G32C U55A | 8.42e-05 ± 1.7e-05 s⁻¹ | 0.000128 ± 3.1e-05 s⁻¹ | 
3 | A15G C34A C71U | < 1e-05 s⁻¹ | < 1e-05 s⁻¹ | 
4 | C19A U54C C58A C68G | 9.88e-05 ± 2.4e-05 s⁻¹ | 0.00036 ± 0.0001 s⁻¹ | 
5 | U30A A36U C70G | 0.000179 ± 6.1e-05 s⁻¹ | 0.000108 ± 4.4e-05 s⁻¹ | 3.78e-05 ± 1.7e-05 s⁻¹
6 | A15G A48G | 4.16e-05 ± 1.4e-05 s⁻¹ | 0.000216 ± 4e-05 s⁻¹ | 8.59e-05 ± 1.3e-05 s⁻¹
7 | G29U G37U G51C C68U C71G | 4.89e-05 ± 1.7e-05 s⁻¹ |  | 
8 | U31G C58G A64U | < 1e-05 s⁻¹ |  | 
9 | C16U G29U U31A | 0.00108 ± 0.00033 s⁻¹ | 0.0037 ± 0.00095 s⁻¹ | 
10 | G32C G63A U65A | < 1e-05 s⁻¹ | < 1e-05 s⁻¹ | 
11 | G29C G37A G38U A52G | < 1e-05 s⁻¹ |  | 
12 | U31C A42U G44A | < 1e-05 s⁻¹ | < 1e-05 s⁻¹ | 
13 | A15G A33G A53U | < 1e-05 s⁻¹ |  | 
14 | A15U G66C C68A | 8.24e-05 ± 3.9e-05 s⁻¹ | 6.09e-05 ± 2.8e-05 s⁻¹ | 
15 | A15U C16A A52U A53C | < 1e-05 s⁻¹ | < 1e-05 s⁻¹ | 
16 | G26U A42U | 6.28e-05 ± 1.6e-05 s⁻¹ | 0.000124 ± 2.5e-05 s⁻¹ | 
17 | G29A G32U U56A | 8.76e-05 ± 2.8e-05 s⁻¹ | 0.000464 ± 0.00011 s⁻¹ | 
18 | G29C U55G C71A | 0.000503 ± 0.00015 s⁻¹ | 5.43e-05 ± 1.3e-05 s⁻¹ | 
19 | C16U G35C G37A | < 1e-05 s⁻¹ |  | 

Row | Variant | self-cleavage kobs at 640 uM GlcN6P [1] | self-cleavage kobs at 2500 uM GlcN6P [2] | self-cleavage kobs at 10000 uM GlcN6P [3]
20 | G32U C50U C61U | < 1e-05 s⁻¹ | < 1e-05 s⁻¹ | 
21 | U31A G60U C71A | < 1e-05 s⁻¹ | < 1e-05 s⁻¹ | 
22 | A14U A42C A64C | < 1e-05 s⁻¹ | < 1e-05 s⁻¹ | < 1e-05 s⁻¹
23 | C16U U30A G44C G63C | < 1e-05 s⁻¹ |  | < 1e-05 s⁻¹
24 | A14U G40C U69C C71U | < 1e-05 s⁻¹ |  | 
25 | A14U G40C G44C U45C C70U | < 1e-05 s⁻¹ | < 1e-05 s⁻¹ | 
26 | G29C U47A C50A | < 1e-05 s⁻¹ |  | < 1e-05 s⁻¹
27 | C16U C34A G37A C68G | 0.000275 ± 0.00012 s⁻¹ |  | 
28 | A28C | 0.0103 ± 0.0026 s⁻¹ |  | 0.0679 ± 0.022 s⁻¹
29 | G32C U56A U65G U69G | 0.000283 ± 0.0001 s⁻¹ | 6.06e-05 ± 3e-05 s⁻¹ | 
30 | A14G U47A G66C | 0.000364 ± 0.00011 s⁻¹ | 0.00101 ± 0.00023 s⁻¹ | 0.00125 ± 0.00022 s⁻¹
31 | G32C A33G U47A U54C A64C C71U | < 1e-05 s⁻¹ | < 1e-05 s⁻¹ | 
32 | A15G G51U G63U C68G | 9.97e-05 ± 4.5e-05 s⁻¹ | 0.000286 ± 0.00011 s⁻¹ | 
33 | A15C G37C C70U | < 1e-05 s⁻¹ |  | 
34 | G29U G40A C70U | 3.68e-05 ± 1.2e-05 s⁻¹ |  | 
35 | A14U G44U U54A G59C C68U | < 1e-05 s⁻¹ | < 1e-05 s⁻¹ | 
36 | G29C G43U A64U C68G | < 1e-05 s⁻¹ |  | 
37 | U30C G32U A64G | 7.24e-05 ± 2.3e-05 s⁻¹ | 0.000195 ± 5.7e-05 s⁻¹ | 
38 | G32C A33U C68U C71G | < 1e-05 s⁻¹ | < 1e-05 s⁻¹ | 

Row | Variant | self-cleavage kobs at 640 uM GlcN6P [1] | self-cleavage kobs at 2500 uM GlcN6P [2] | self-cleavage kobs at 10000 uM GlcN6P [3]
39 | U30A G38U | < 1e-05 s⁻¹ | < 1e-05 s⁻¹ | 
40 | A14U C58A C70A | 7.42e-05 ± 2.4e-05 s⁻¹ |  | 
41 | U30C C34A | < 1e-05 s⁻¹ |  | < 1e-05 s⁻¹
42 | U30C U31A U45A | 0.00111 ± 0.00052 s⁻¹ | 0.000661 ± 0.0003 s⁻¹ | 
43 | C16U G37A U54C | 0.000373 ± 8.1e-05 s⁻¹ | 0.000599 ± 0.00013 s⁻¹ | 0.00176 ± 0.00031 s⁻¹
44 | C16U A39U A42C | 8.5e-05 ± 2.3e-05 s⁻¹ | 0.000172 ± 3.6e-05 s⁻¹ | 
45 | G32C G44C A48C C67G | < 1e-05 s⁻¹ | < 1e-05 s⁻¹ | 
46 | U30A C71G | 0.000371 ± 0.00016 s⁻¹ | 0.000129 ± 5.8e-05 s⁻¹ | 0.00032 ± 7.6e-05 s⁻¹
47 | U31G G44A C68U | < 1e-05 s⁻¹ |  | 
48 | G29A U56A A64G | 0.000408 ± 0.00012 s⁻¹ | 0.00201 ± 0.00043 s⁻¹ | 0.00195 ± 0.00041 s⁻¹
49 | A15G U49A C58A U69A C70U | 0.00014 ± 3.9e-05 s⁻¹ |  | 
50 | A15G G43U A48U C50U | < 1e-05 s⁻¹ |  | 
51 | A15C G51A G59C | < 1e-05 s⁻¹ | < 1e-05 s⁻¹ | 
52 | C16A G60U U69G | < 1e-05 s⁻¹ |  | 
53 | G29A U69A | 7.98e-05 ± 2.2e-05 s⁻¹ | 3.9e-05 ± 9.8e-06 s⁻¹ | 
54 | C16U U46C U55A C70U | 0.00101 ± 0.00034 s⁻¹ | 0.00219 ± 0.0006 s⁻¹ | 0.00226 ± 0.00047 s⁻¹
55 | U31C G32A A39G | 0.000252 ± 4.9e-05 s⁻¹ |  | 0.0014 ± 0.00028 s⁻¹
56 | U30G A42G U45C C70A C71A | < 1e-05 s⁻¹ |  | 
